From publication PMC6016464, “Folding and binding pathways of BH3-only proteins are encoded within their intrinsically disordered sequence, not templated by partner proteins” (The Journal of Biological Chemistry, 2018)
Where no end group is shown, it is not given here. The star is where a group is joined. TAMRA = 5-carboxytetramethylrhodamine, CN(C)c1ccc2c(-c3ccc(C(=O)*)cc3C(=O)[O-])c3ccc(=[N+](C)C)cc-3oc2c1

T1: A1 protein (mouse, residues 1-152, P104K C113S, used as wild type) (mouse)
T1 sequence (Q07440 1-152 with P104K C113S, looked up): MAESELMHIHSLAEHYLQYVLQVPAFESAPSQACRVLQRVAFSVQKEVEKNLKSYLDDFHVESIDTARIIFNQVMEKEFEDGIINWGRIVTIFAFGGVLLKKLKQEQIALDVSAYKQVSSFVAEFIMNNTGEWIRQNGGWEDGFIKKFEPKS

T2: MCL-1 (mouse, residues 152-308) (mouse)
T2 construct: remnant of thrombin cleavage at the N-terminus of MCL-1; MCL-1, mouse, residues 152-308, UniProt P97287; source: E. coli C41 pLysS, purified (Ni2+ agarose, thrombin cleavage, ion exchange, Superdex G75 gel filtration); not shown: His6, N-terminal, cleaved
T2 chain: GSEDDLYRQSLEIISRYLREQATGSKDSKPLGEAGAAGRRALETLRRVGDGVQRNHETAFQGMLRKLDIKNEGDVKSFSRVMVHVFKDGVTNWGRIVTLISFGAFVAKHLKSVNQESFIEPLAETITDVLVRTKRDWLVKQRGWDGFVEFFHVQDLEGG

B1: PUMA E136A peptide (on the M144A wild type), TAMRA-labelled (peptide)
chain: {TAMRA}-RVEEEEWARAIGAQLRRAADDLNAQYERRRQEEQH
B2: PUMA E136G peptide (on the M144A wild type), TAMRA-labelled (peptide)
chain: {TAMRA}-RVEEEEWARGIGAQLRRAADDLNAQYERRRQEEQH
B3: PUMA A139G peptide (on the M144A wild type), TAMRA-labelled (peptide)
chain: {TAMRA}-RVEEEEWAREIGGQLRRAADDLNAQYERRRQEEQH
B4: PUMA D147G peptide (on the M144A wild type), TAMRA-labelled (peptide)
chain: {TAMRA}-RVEEEEWAREIGAQLRRAADGLNAQYERRRQEEQH
B5: PUMA E132A peptide (on the M144A wild type), TAMRA-labelled (peptide)
chain: {TAMRA}-RVEEEAWAREIGAQLRRAADDLNAQYERRRQEEQH
B6: PUMA D147A peptide (on the M144A wild type), TAMRA-labelled (peptide)
chain: {TAMRA}-RVEEEEWAREIGAQLRRAADALNAQYERRRQEEQH
B7: PUMA A150G peptide (on the M144A wild type), TAMRA-labelled (peptide)
chain: {TAMRA}-RVEEEEWAREIGAQLRRAADDLNGQYERRRQEEQH
B8: BID peptide (mouse, residues 76-110), TAMRA-labelled (peptide)
chain: {TAMRA}-SESQEEIIHNIARHLAQIGDEMDHNIQPTLVRQLA
notes: BID, mouse, residues 76-110, UniProt P70444; also called WT; source: synthetic peptide (Biomatik)
B9: BID H99G peptide, TAMRA-labelled (peptide, UniProt P70444 76-110, looked up)
chain: {TAMRA}-SESQEEIIHNIARHLAQIGDEMDGNIQPTLVRQLA
notes: BID, mouse, residues 76-110, UniProt P70444; source: synthetic peptide (Biomatik)
B10: BID I93A peptide, TAMRA-labelled (peptide, UniProt P70444 76-110, looked up)
chain: {TAMRA}-SESQEEIIHNIARHLAQAGDEMDHNIQPTLVRQLA
notes: as for B9
B11: BID E96A peptide, TAMRA-labelled (peptide, UniProt P70444 76-110, looked up)
chain: {TAMRA}-SESQEEIIHNIARHLAQIGDAMDHNIQPTLVRQLA
notes: as for B9
B12: BID E96G peptide, TAMRA-labelled (peptide, UniProt P70444 76-110, looked up)
chain: {TAMRA}-SESQEEIIHNIARHLAQIGDGMDHNIQPTLVRQLA
notes: as for B9
B13: BID I82A peptide, TAMRA-labelled (peptide, UniProt P70444 76-110, looked up)
chain: {TAMRA}-SESQEEAIHNIARHLAQIGDEMDHNIQPTLVRQLA
notes: as for B9
B14: BID H99A peptide, TAMRA-labelled (peptide, UniProt P70444 76-110, looked up)
chain: {TAMRA}-SESQEEIIHNIARHLAQIGDEMDANIQPTLVRQLA
notes: as for B9
B15: BID I86A peptide, TAMRA-labelled (peptide, UniProt P70444 76-110, looked up)
chain: {TAMRA}-SESQEEIIHNAARHLAQIGDEMDHNIQPTLVRQLA
notes: as for B9
B16: BID I86A-M97A peptide, TAMRA-labelled (peptide, UniProt P70444 76-110, looked up)
chain: {TAMRA}-SESQEEIIHNAARHLAQIGDEADHNIQPTLVRQLA
notes: as for B9
B17: PUMA R154G peptide (on the M144A wild type), TAMRA-labelled (peptide)
chain: {TAMRA}-RVEEEEWAREIGAQLRRAADDLNAQYEGRRQEEQH
B18: PUMA R143G peptide (on the M144A wild type), TAMRA-labelled (peptide)
chain: {TAMRA}-RVEEEEWAREIGAQLRGAADDLNAQYERRRQEEQH
B19: PUMA W133F peptide (on the M144A wild type), TAMRA-labelled (peptide)
chain: {TAMRA}-RVEEEEFAREIGAQLRRAADDLNAQYERRRQEEQH
B20: PUMA R143A peptide (on the M144A wild type), TAMRA-labelled (peptide)
chain: {TAMRA}-RVEEEEWAREIGAQLRAAADDLNAQYERRRQEEQH
B21: PUMA R154A peptide (on the M144A wild type), TAMRA-labelled (peptide)
chain: {TAMRA}-RVEEEEWAREIGAQLRRAADDLNAQYEARRQEEQH
B22: PUMA Y152A peptide (on the M144A wild type), TAMRA-labelled (peptide)
chain: {TAMRA}-RVEEEEWAREIGAQLRRAADDLNAQAERRRQEEQH
B23: PUMA I137A peptide (on the M144A wild type), TAMRA-labelled (peptide)
chain: {TAMRA}-RVEEEEWAREAGAQLRRAADDLNAQYERRRQEEQH
B24: PUMA peptide (mouse, residues 127-161, M144A, used as wild type), TAMRA-labelled (peptide)
chain: {TAMRA}-RVEEEEWAREIGAQLRRAADDLNAQYERRRQEEQH
B25: PUMA E132G peptide (on the M144A wild type), TAMRA-labelled (peptide)
chain: {TAMRA}-RVEEEGWAREIGAQLRRAADDLNAQYERRRQEEQH

Legend:
[1] = biological target: T1, A1 protein (mouse, residues 1-152, P104K C113S, used as wild type) (mouse); assay: fluorescence dissociation kinetics with competitor; dissociation; preformed complex of TAMRA-labelled peptide and partner protein mixed with excess unlabeled PUMA peptide as competitor; stopped-flow or Cary Eclipse spectrophotometer; 25 °C; 50 mM sodium phosphate, 0.05% (v/v) Tween 20, pH …
[2] = biological target: T1, A1 protein (mouse, residues 1-152, P104K C113S, used as wild type) (mouse); assay: stopped-flow fluorescence kinetics + other: fluorescence dissociation kinetics with competitor; Kd calculated as the ratio koff/kon of the kinetic rate constants; 25 °C; 50 mM sodium phosphate, 0.05% (v/v) Tween 20, pH 7.0
[3] = biological target: T1, A1 protein (mouse, residues 1-152, P104K C113S, used as wild type) (mouse); assay: stopped-flow fluorescence kinetics; association; TAMRA-labelled peptide with folded partner at least 10-fold higher (pseudo-first-order); kon from the gradient of kobs versus partner concentration; 25 °C; 50 mM sodium phosphate, 0.05% (v/v) Tween 20, pH 7.0
[4] = biological target: T2, MCL-1 (mouse, residues 152-308); assay: stopped-flow fluorescence kinetics + other: fluorescence dissociation kinetics with competitor; Kd calculated as the ratio koff/kon of the kinetic rate constants; 25 °C; 50 mM sodium phosphate, 0.05% (v/v) Tween 20, pH 7.0; details: both partners purified
[5] = biological target: T2, MCL-1 (mouse, residues 152-308); assay: stopped-flow fluorescence kinetics; association; TAMRA-labelled peptide with folded partner at least 10-fold higher (pseudo-first-order); kon from the gradient of kobs versus partner concentration; 25 °C; 50 mM sodium phosphate, 0.05% (v/v) Tween 20, pH 7.0; details: both partners purified
Outline: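 TAMRA-labelled peptide was mixed with mouse MCL-1 (residues 152–308) by stopped-flow in 50 mM sodium phosphate, 0.05% (v/v) Tween 20, pH 7.0, at 25 °C, with the partner at least 10-fold in excess. Fluorescence was excited at 555 nm and collected above 570 nm. At least 15 traces were averaged, points before the 1 ms deadtime were discarded, and single-exponential fits yielded kobs. The association rate constant (kon) is the slope of kobs plotted against partner concentration.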

[6] = biological target: T2, MCL-1 (mouse, residues 152-308); assay: fluorescence dissociation kinetics with competitor; dissociation; preformed complex of TAMRA-labelled peptide and partner protein mixed with excess unlabeled PUMA peptide as competitor; stopped-flow or Cary Eclipse spectrophotometer; 25 °C; 50 mM sodium phosphate, 0.05% (v/v) Tween 20, pH 7.0; details: both partners purified
Outline: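 The dissociation rate constant (koff) was found by displacing TAMRA-labelled peptide from its preformed complex with mouse MCL-1 (residues 152–308) using a range of unlabelled competitor peptide concentrations. Experiments were run at 25 °C in 50 mM sodium phosphate, 0.05% (v/v) Tween 20, pH 7.0, on a stopped-flow instrument when kobs was above 0.03 s^−1 and on a Cary Eclipse when kobs was below 0.03 s^−1. Each fluorescence trace was fit to a single exponential, and once competitor was in sufficient excess, the kobs values that no longer depended on concentration were averaged to give koff.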

Row | Binder | koff [1] | Kd [2] | kon [3] | Kd [4] | kon [5] | koff [6]
1 | B1 | 0.00048 s⁻¹ | 0.046 nM | 1.04e+07 M⁻¹ s⁻¹ | – | – | –
2 | B2 | 0.00238 s⁻¹ | 0.29 nM | 8.2e+06 M⁻¹ s⁻¹ | – | – | –
3 | B3 | 0.00108 s⁻¹ | 0.33 nM | 3.26e+06 M⁻¹ s⁻¹ | – | – | –
4 | B4 | 0.00195 s⁻¹ | 0.288 nM | 6.76e+06 M⁻¹ s⁻¹ | – | – | –
5 | B5 | 0.00077 s⁻¹ | 0.088 nM | 8.8e+06 M⁻¹ s⁻¹ | – | – | –
6 | B6 | 0.00048 s⁻¹ | 0.051 nM | 9.4e+06 M⁻¹ s⁻¹ | – | – | –
7 | B7 | 0.00215 s⁻¹ | 0.444 nM | 4.84e+06 M⁻¹ s⁻¹ | – | – | –
8 | B8 | 0.000155 s⁻¹ | 0.019 nM | 8.2e+06 M⁻¹ s⁻¹ | 0.33 nM | 8.9e+06 M⁻¹ s⁻¹ | 0.003 s⁻¹
9 | B9 | – | – | – | 0.4 nM | 9e+06 M⁻¹ s⁻¹ | 0.004 s⁻¹
10 | B10 | 0.0025 s⁻¹ | 0.44 nM | 5.6e+06 M⁻¹ s⁻¹ | 96 nM | 4.5e+06 M⁻¹ s⁻¹ | 0.43 s⁻¹
11 | B11 | 0.000146 s⁻¹ | 0.015 nM | 1e+07 M⁻¹ s⁻¹ | 0.38 nM | 9.9e+06 M⁻¹ s⁻¹ | 0.0038 s⁻¹
12 | B12 | 0.00077 s⁻¹ | 0.098 nM | 7.8e+06 M⁻¹ s⁻¹ | 0.9 nM | 1.09e+07 M⁻¹ s⁻¹ | 0.01 s⁻¹
13 | B13 | – | – | – | 0.65 nM | 9.5e+06 M⁻¹ s⁻¹ | 0.0062 s⁻¹
14 | B14 | – | – | – | 0.12 nM | 9.2e+06 M⁻¹ s⁻¹ | 0.001 s⁻¹
15 | B15 | 0.022 s⁻¹ | 7.6 nM | 2.9e+06 M⁻¹ s⁻¹ | 35 nM | 4e+06 M⁻¹ s⁻¹ | 0.14 s⁻¹
16 | B16 | 0.11 s⁻¹ | 50 nM | 2.2e+06 M⁻¹ s⁻¹ | 390 nM | 3.5e+06 M⁻¹ s⁻¹ | 1.36 s⁻¹
17 | B17 | 0.00044 s⁻¹ | 0.092 nM | 4.79e+06 M⁻¹ s⁻¹ | – | – | –
18 | B18 | 0.0052 s⁻¹ | 1.72 nM | 3.03e+06 M⁻¹ s⁻¹ | – | – | –
19 | B19 | 0.00203 s⁻¹ | 0.475 nM | 4.27e+06 M⁻¹ s⁻¹ | – | – | –
20 | B20 | 0.00088 s⁻¹ | 0.24 nM | 3.67e+06 M⁻¹ s⁻¹ | – | – | –
21 | B21 | 0.00054 s⁻¹ | 0.111 nM | 4.86e+06 M⁻¹ s⁻¹ | – | – | –
22 | B22 | 0.00251 s⁻¹ | 0.49 nM | 5.1e+06 M⁻¹ s⁻¹ | – | – | –
23 | B23 | 0.006 s⁻¹ | 3.7 nM | 1.64e+06 M⁻¹ s⁻¹ | – | – | –
24 | B24 | 0.0005 s⁻¹ | 0.085 nM | 5.9e+06 M⁻¹ s⁻¹ | – | – | –
25 | B25 | 0.00086 s⁻¹ | 0.102 nM | 8.4e+06 M⁻¹ s⁻¹ | – | – | –
